Test results reported in paper PMC4336573 (2015).

Molecular target: T1, Histone H3 K27me3 peptide H3K27me3 peptide (Homo sapiens, UniProt P68431, K27 trimethylation (H3))
T1 chain: QLATKAARKSAPATGGV
Assay: fluorescence anisotropy

B1: CBX7 chromodomain (protein)
chain: FAVESIRKKRVRKGKVEYLVKWKGWPPKYSTWEPEEHILDPRLVMAYEEKEERDRASGY
Kd: 27.7 µM
